According to patent US20150166671A1 (CHILDREN S MEDICAL CENTER, published 2015):

T1: KRM2N-FLAG-6xHIS (human, UniProt Q8NCW0 26-364)
T1 construct: extracellular domain; Negative control; also called human Kremen2; not shown: carboxyl FLAG tag and 6xHIS tag
T1 sequence (looked up): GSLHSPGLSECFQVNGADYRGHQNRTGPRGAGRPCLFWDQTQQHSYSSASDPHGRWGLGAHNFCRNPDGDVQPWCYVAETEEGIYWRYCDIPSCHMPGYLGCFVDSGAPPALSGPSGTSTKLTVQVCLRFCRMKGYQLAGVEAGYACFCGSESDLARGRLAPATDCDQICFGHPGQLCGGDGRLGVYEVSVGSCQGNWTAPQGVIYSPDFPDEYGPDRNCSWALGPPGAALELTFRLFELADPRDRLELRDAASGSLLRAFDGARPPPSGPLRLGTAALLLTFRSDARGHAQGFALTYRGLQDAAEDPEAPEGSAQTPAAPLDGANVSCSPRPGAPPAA

T2: recombinant human WNT3A, P56704
T2 chain: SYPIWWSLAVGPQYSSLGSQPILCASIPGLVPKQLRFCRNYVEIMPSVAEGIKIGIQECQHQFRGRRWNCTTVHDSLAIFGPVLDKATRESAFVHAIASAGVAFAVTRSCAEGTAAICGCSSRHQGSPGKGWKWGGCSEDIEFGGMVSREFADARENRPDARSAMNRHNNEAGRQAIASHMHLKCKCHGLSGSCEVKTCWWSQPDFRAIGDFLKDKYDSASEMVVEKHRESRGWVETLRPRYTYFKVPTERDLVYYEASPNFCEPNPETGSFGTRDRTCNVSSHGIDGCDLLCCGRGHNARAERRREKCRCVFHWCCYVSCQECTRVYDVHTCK


What was measured:
[1] = molecular target: T1, KRM2N-FLAG-6xHIS; assay: co-immunoprecipitation from CM with an anti-FLAG antibody, Western blotting
Description: (Y-BB) TIKI2, but not KRM2, interacts with Wnt3a, Xwnt8-Myc, Wnt5a, and Xwnt11. Wnt proteins were each co-expressed with KRM2N or TIKI2N (FLAG tagged) and CM were subjected to immunoprecipitation with an anti-FLAG antibody and Western blotting with indicated antibodies.
The rabbit polyclonal anti-LRP6 antibody has been described (Tamai et al., 2004). Other antibodies were used according to manufacturer's instructions. From Cell Signaling: the rabbit monoclonal anti-Wnt3a (#2721, 1:1000), anti-HA (#3724, 1:1000), anti-Wnt5a (#2530, 1:1000) and anti-FLAG (#8146, 1:2000), from Santa Cruz: anti-Dv12 (sc-13974, 1:1000), anti-HA (sc-7392, 1:1000), and anti-Myc (sc-40, 1:500), from BD Transduction Laboratories: anti-beta-catenin (610154, 1:2000), From Hybridoma Bank: anti-tubulin (E7, 1:5000). Anti-FLAG M2 (A2220) and anti-HA (A2095) Affinity gels are from Sigma Immunoblotting was performed as previously described (MacDonald et al., 2008). For indirect immunofluorescence experiments, HeLa cells were plated on glass coverslips in 12-well plates and transfected with HA*Tiki1 expression construct. To visualize Tiki1 proteins on the cell surface, live cells were incubated with the anti-HA antibody in the culture medium for 30 min. The coverslip was washed with PBS and fixed with 4% paraformaldehyde in PBS for 10 min at room temperature. […]

[2] = molecular target: HA-Wnt3a
[3] = molecular target: T2, recombinant human WNT3A, P56704

binding result [1] | Binder | in vitro cleavage of purified HA-Wnt3a by purified protein (Western blotting) [2] | in vitro cleavage, mass spectrometry [3]
no binding | Xwnt11 (ligand, Xenopus, UniProt P49893 23-353, looked up) IQWLGLTVNGSRVAWNESEHCRLLDGLVPDQSQLCKRNLELMQSVVNAAKQTKLTCQMTLSDMRWNCSSVENAPSFTPDLSKGTRESAFVYALASATLSHTIARACASGELPTCSCGATPAEVPGTGFRWGGCGDNLHYGLNMGSAFVDAPMKSSKSAGTQATKIMNLHNNAVGRQVLMDSLETKCKCHGVSGSCSVKTCWKGLQDLPHIANELKSKYLGATKVIHRQTGTRRQLVPRELDIRPVRESELVYLVSSPDYCTKNPKLGSYGTQDRLCNKTSVGSDSCNLMCCGRGYNAYTETIVERCQCKYHWCCYVMCKKCERTVERYVCK |  | 
no binding | Xwnt8-Myc (ligand, also called Xenopus wnt8; not shown: Myc tag) AWSVNNFLMTGPKAYLTYSASVAVGAQNGIEECKYQFAWERWNCPESTLQLATHNGLRSATRETSFVHAISSAGVMYTLTRNCSMGDFDNCGCDDSRNGRIGGRGWVWGGCSDNAEFGERISKLFVDGLETGQDARALMNLHNNEAGRLAVKETMKRTCKCHGISGSCSIQTCWLQLAEFRDIGNHLKIKHDQALKLEMDKRKMRSGNSADNRGAIADAFSSVAGSELIFLEDSPDYCLKNISLGLQGTEGRECLQSGKNLSQWERRSCKRLCTDCGLRVEEKKTEIISSCNCKFHWCCTVKCEQCKQVVIKHFCARRERDSNMLNTKRKNRGHRR |  | 

More lines, now with the values behind:

Binder | binding result [1] | in vitro cleavage of purified HA-Wnt3a by purified protein (Western blotting) [2] | in vitro cleavage, mass spectrometry [3]
TIKI2N-FLAG-6xHIS (protein) RPQPPDGGQCRPPGSQRDLNSFLWTIRRDPPAYLFGTIHVPYTRVWDFIPDNSKAAFQASTRVYFELDLTDPYTISALASCQLLPHGENLQDVLPHELYWRLKRHLDYVKLMMPSWMTPAQRGKGLYADYLFNAIAGNWERKRPVWVMLMVNSLTERDVRFRGVPVLDLYLAQQAEKMKKTTGAVEQVEEQCHPLNNGLNFSQVLFALNQTLLQQESVRAGSLQASYTTEDLIKHYNCGDLSAVIFNHDTSQLPNFINTTLPPHEQVTAQEIDSYFRQELIYKRNERMGKRVMALLRENEDKICFFAFGAGHFLGNNTVIDILRQAGLEVDHTPAGQAIHSPAPQSPAPSPEGTSTSPAPVTPAAAVPEAPSVTPTAPPEDEDPALSPHLLLPDSLSQLEEFGRQRKWHKRQSTHQRPRQFNDLWVRIEDSTTASPPPLPLQPTHSSGTAKPPFQLSDQLQQQDPPG |  | upon in vitro incubation with purified HA-Wnt3a, triggered Wnt3a cleavage and the disappearance of the HA epitope | MS analyses of recombinant human WNT3A cleaved by TIKI2N in vitro indicated cleavage at identical (major and minor) amino terminal sites as observed in cells
TIKI2NΔ-FLAG-6xHIS (protein) RPQPPDGGQCRPPGSQRDLNSFLWTIRRDPPAYLFGTIHVPYTRVWDFIPDNSKAAFQASTRVYFELDLTDPYTISALASCQLLPHGENLQDVLPHELYWRLKRHLDYVKLMMPSWMTPAQRGKGLYADYLFNAIAGNWERKRPVWVMLMVNSLTERDVRFRGVPVLDLYLAQQAEKMKKTTGAVEQVEEQCHPLNNGLNFSQVLFALNQTLLQQESVRAGSLQASYTTEDLIKHYNCGDLSAVIFNHDTSQLPNFINTTLPPHEQVTAQEIDSYFRQELIYKRNERMGKRVMALLRENEDKICFFAFGAGHFLGNNTVIDILRQAGLEVDHTPAGQAIHSPAPQSPAPSPEGTSTSPAPVTPAAAVPEAPSVTPTAPPEDEDPALSPHLLLPDSLSQLEEFGRQRKWHKRQSTHQRPRQFNDLWVRIEDSTTASPPPLPLQPTHSSGTAKPPFQLSDQLQQQDPPG |  | failed to do so in the in vitro assay | 
